This note sets out measurements from US20140086916A1 (Merck Sharp & Dohme, published 2014).

Like-named read-outs stand apart in the source and are kept apart here.

Assay [1] addresses T1, FcγRIIIa-V158 (Pichia pastoris produced) (UniProt P08637 17-208, limits assumed).
T1 construct: also called FcγRIIIA LV; FcgRIIIA LV
The experiment in a line: ELISA-type plate assay, FcγR coated, antibody dimerized with AP-conjugated goat anti-human IgG F(ab')2, RFU readout. The procedure: (§1) Fcγ receptor binding assays were carried out as described (Shields, et al. (2001) J. Biol. Chem. 276:6591-6604) with minor modifications. High protein binding 96-well plates (Corning Costar) were coated with 100 μL per well of Fcγ receptor solutions in PBS at the following concentrations: 1 μg/mL for both FcγRI (R&D Systems) and FcγRIIa (Pichia pastoris produced), 2 μg/mL for FcγRIIb (P. pastoris produced), 0.8 μg/mL for FcγRIIIa-F158, and 0.4 μg/mL for FcγRIIIa-V158 (both P. pastoris produced). All Pichia pastoris produced receptors were expressed and purified as described (Li, et al. (2006) Nature Biotechnology 24:210-215). Monomeric antibody samples added to the FcγRI plate were serially diluted in assay diluent (1×PBS, 1% BSA, and 0.05% Tween20) and 100 μL, per well was added to the plate. Antibody samples prepared for the remaining receptors require a one hour dimerization step with half molar ratio of goat anti-human IgG F(ab′)2 F(ab′)2 that is conjugated with alkaline phosphatase for detection. These dimerized F(ab′)2/antibody complexes were also serially diluted and 100 μL per well were added to the remaining receptor plates and all plates were incubated for one hour at room temperature. FcγRI bound sample antibody was detected using the same goat anti-human IgG F(ab′)2 alkaline phosphatase conjugated F(ab′)2. Sample antibody binding was quantified by measuring excitation at 340 nm and emission at 465 nm after 18 hour incubation with SuperPhos, 4-MUP Fluorescence AP Substrate Detection System (Virolabs).
On the technique in general: An ELISA detects its analyte on a solid surface through an enzyme-linked reagent.

The target of assay [2] is T2, FcγRIIIa-F158 (Pichia pastoris produced) (UniProt P08637 17-208, limits assumed).
T2 construct: also called FcγRIIIA LF; FcgRIIIA LF
The description is as above. As for the experimental part: as §1

For assay [3], the target named is T1, FcγRIIIa-V158 (Pichia pastoris produced). The assay is described as above. The procedure:
as §1
This is another data set of the same source.

The target in assay [4] is T3, FcγRIIb (Pichia pastoris produced) (UniProt P31994 43-217, limits assumed).
T3 construct: also called FcgRIIB; CD32B
T3 sequence (looked up): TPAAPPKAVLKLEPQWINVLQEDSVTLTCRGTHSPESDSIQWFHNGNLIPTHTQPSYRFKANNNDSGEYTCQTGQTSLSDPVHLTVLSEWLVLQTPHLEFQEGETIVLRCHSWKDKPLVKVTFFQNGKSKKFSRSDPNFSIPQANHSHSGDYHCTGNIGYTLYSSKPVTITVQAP
The description is as above. As for the experimental part: as §1

Assay [5] has as its target T2, FcγRIIIa-F158 (Pichia pastoris produced). The experiment in a line: FcγR affinity assay 'as described in Example 7', n = 3; printed as Affinity (nM) ± STDEV. The procedure:
as §1

The target in assay [6] is T1, FcγRIIIa-V158 (Pichia pastoris produced). The assay is described as above. As for the experimental part: as §1
The target of assay [7] is T2, FcγRIIIa-F158 (Pichia pastoris produced). Description: ELISA-type plate assay, FcγR coated, antibody dimerized with AP-conjugated goat anti-human IgG F(ab')2, RFU readout. As for the experimental part:
as §1
This is another data set of the same source.

In assay [8] the target is T1, FcγRIIIa-V158 (Pichia pastoris produced). The assay is described as above. As for the experimental part: as §1
This is another data set of the same source.

The target in assay [9] is T3, FcγRIIb (Pichia pastoris produced). The assay is described as above. The procedure: as §1
The source holds these as a separate data set.

Assay [10] has as its target T1, FcγRIIIa-V158 (Pichia pastoris produced). The assay is described as above. The procedure: as §1
This is another data set of the same source.

Assay [11] shares this target. The assay is described as above. As for the experimental part:
as §1
This is another data set of the same source.

The target is the same in assay [12]. Described as above. As for the experimental part: as §1
The source holds these as a separate data set.

Assay [13] concerns the target T2, FcγRIIIa-F158 (Pichia pastoris produced). The experiment in a line: ELISA on plate-coated receptor; antibody dimerized with anti-human IgG F(ab')2-AP; ELISA IC50, YGLY23258 (dimer), Table 4 experiment. The procedure: as §1, with “These dimerized F(ab′)2/antibody complexes were also serially diluted and 100 μL per well were added to the remaining receptor plates and all plates were incubated for one hour at room temperature.” left out

In assay [14] the target is T1, FcγRIIIa-V158 (Pichia pastoris produced). The assay is described as above. The procedure:
as §1, with “These dimerized F(ab′)2/antibody complexes were also serially diluted and 100 μL per well were added to the remaining receptor plates and all plates were incubated for one hour at room temperature.” left out

Assay [15] addresses T2, FcγRIIIa-F158 (Pichia pastoris produced). The experiment in a line: summary of the FcγR ELISAs; Table 8 summary: range of fold decrease over the ELISA experiments. As for the experimental part: as §1, with “These dimerized F(ab′)2/antibody complexes were also serially diluted and 100 μL per well were added to the remaining receptor plates and all plates were incubated for one hour at room temperature.” left out

The target in assay [16] is T1, FcγRIIIa-V158 (Pichia pastoris produced). Described as above. The procedure: as §1, with “These dimerized F(ab′)2/antibody complexes were also serially diluted and 100 μL per well were added to the remaining receptor plates and all plates were incubated for one hour at room temperature.” left out

T2 sequence (P08637 17-208 limits assumed): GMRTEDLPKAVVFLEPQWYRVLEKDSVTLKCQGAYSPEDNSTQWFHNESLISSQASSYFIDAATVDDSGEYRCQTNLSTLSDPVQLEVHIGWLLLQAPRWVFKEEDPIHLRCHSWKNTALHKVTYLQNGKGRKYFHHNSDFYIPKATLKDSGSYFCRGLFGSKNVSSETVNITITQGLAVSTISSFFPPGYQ
T1 sequence (P08637 17-208 F176V limits assumed): as the sequence (P08637 17-208 limits assumed) above, with F160V counted along it

B1: 1F11 wildtype (parent) humanized anti-PCSK9 monoclonal IgG1 antibody (antibody)
heavy: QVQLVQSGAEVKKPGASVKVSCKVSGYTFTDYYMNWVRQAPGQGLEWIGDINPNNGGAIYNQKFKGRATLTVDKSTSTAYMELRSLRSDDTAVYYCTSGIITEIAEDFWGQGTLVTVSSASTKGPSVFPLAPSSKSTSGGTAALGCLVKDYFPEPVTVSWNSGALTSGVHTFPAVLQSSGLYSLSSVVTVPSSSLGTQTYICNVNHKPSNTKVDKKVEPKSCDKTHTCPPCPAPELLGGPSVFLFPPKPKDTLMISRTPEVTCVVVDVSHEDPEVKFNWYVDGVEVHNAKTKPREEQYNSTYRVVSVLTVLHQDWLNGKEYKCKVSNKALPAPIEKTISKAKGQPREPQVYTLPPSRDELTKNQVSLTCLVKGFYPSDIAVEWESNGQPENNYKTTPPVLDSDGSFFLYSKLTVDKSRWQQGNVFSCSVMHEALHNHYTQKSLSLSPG
light: DIQMTQSPSSLSASVGDRVTITCKASQNVGTNVVWYQQKPGKAPKALIHSASYRYSGVPSRFSGSGSGTDFTLTISSLQPEDFATYYCQQYKTYPYTFGQGTKVEIKRTVAAPSVFIFPPSDEQLKSGTASVVCLLNNFYPREAKVQWKVDNALQSGNSQESVTEQDSKDSTYSLSSTLTLSKADYEKHKVYACEVTHQGLSSPVTKSFNRGEC
notes: Produced in glycoengineered Pichia pastoris GFI5.0 (strain YGLY21351); also called 1F11 IgG1 GS5.0; YGLY21351
As to B1, the EC50 (read off the curve) (commonly the concentration at which the effect is half-maximal) was roughly 0.03 µg/mL in assay [1]; roughly 0.02 µg/mL in assay [2]; roughly 0.04 µg/mL in assay [3]; roughly 0.1 µg/mL in assay [4]; roughly 0.02 µg/mL in assay [7]; roughly 0.04 µg/mL in assay [8]. Moreover, the “EC50 (read off the curve)” value was roughly 0.4 µg/mL in assay [9], roughly 0.03 µg/mL in assay [10], roughly 0.03 µg/mL in assay [11] and roughly 0.05 µg/mL in assay [12]. In addition, the results for the Kd in assay [5] and in assay [6] were 203 nM and 0.15 nM, respectively.

B2: 1F11 IgG1 F243A/V264A double mutein anti-PCSK9 antibody (antibody)
heavy: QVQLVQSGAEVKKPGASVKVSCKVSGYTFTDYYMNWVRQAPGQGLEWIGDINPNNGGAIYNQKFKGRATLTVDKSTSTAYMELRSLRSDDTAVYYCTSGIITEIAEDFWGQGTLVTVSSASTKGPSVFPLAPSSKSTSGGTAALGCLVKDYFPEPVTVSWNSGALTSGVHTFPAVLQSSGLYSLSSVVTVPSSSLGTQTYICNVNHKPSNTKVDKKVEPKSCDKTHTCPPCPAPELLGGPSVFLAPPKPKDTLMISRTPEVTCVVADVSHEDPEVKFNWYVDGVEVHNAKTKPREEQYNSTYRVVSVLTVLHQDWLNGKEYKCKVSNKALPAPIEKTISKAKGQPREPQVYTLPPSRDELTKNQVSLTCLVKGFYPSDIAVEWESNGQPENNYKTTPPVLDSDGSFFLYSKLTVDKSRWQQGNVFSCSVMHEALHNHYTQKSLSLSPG
light: B1 light
notes: sialylated N-glycans; also called 1F11 DM; YGLY23258
Take B2: the “EC50 (read off the curve)” value in assay [1] was roughly 0.2 µg/mL; in assay [3], roughly 0.1 µg/mL; in assay [8], roughly 0.1 µg/mL; in assay [10] it was roughly 0.1 µg/mL; in [11], roughly 0.2 µg/mL; in assay [12], roughly 0.1 µg/mL. Moreover, the Kd – broadly, the equilibrium constant for the complex coming apart – in [5] came to 2520 nM; in assay [6], 97 nM. Moreover, the IC50 (commonly the midpoint of a concentration-inhibition curve) in assay [13] turned out to be 0.69 µg/mL; in assay [14], 0.12 µg/mL. The results for the “decreased affinity fold vs wildtype parent antibody produced in GS 5.0” value in [15] and in [16] were 8 to 60 fold and 2 to 6 fold, respectively.
